Measured values reported in patent US8663616B2, “Enzymatic peracid generation for use in oral care products” (E I du Pont de Nemours and Company, priority 2010, dated 2014).
Changes are numbered by the printed parent chain. Names may count otherwise. Blank lines part the entries; values can stand above or below the molecule they belong to.

Legend:
[1] = T. maritima C277S/C277T constructs, peracetic acid when bound to bovine enamel (Example 11); type: biochemical; conditions: bovine enamel exposed to 10 μM enzyme, 4 washes; 100 mM triacetin, 100 mM H2O2, 30 min, 37° C.; no enzyme 570
Description: (§1) The detection of peracetic acid followed the method described in Pinkernell et. al. (Analyst, 1997, 122, 567) using colorimetric detection of 2,2′-azino-bis(3-ethylbenzothiazoline(-6-sulfonate (ABTS) oxidation by peracetic acid. Following the formation of peracetic acid with the addition of triacetin and hydrogen peroxide, 90 μL of solution was added to 10 μL of 0.1 M H3PO4 in a well plate. 50 μL of 1 M acetic acid, 50 μL of 0.5 g/L ABTS and 50 μL of 0.002 g/L of KI was added. The solution was allowed to develop for 5 min. The absorbance of the solution was measured at 405 nm using a microplate reader. The peracetic acid concentration was calculated based on a standard curve developed simultaneously using peracetic acid reagent solution.
The perhydrolase enzymes were also assessed for binding to bovine enamel substrates. Enamel substrates were prepared as described in Example 2 and 3. Each enamel block was hydrated in water for overnight at room temperature (˜22° C.). The enamel blocks were then equilibrated with 10 mM potassium phosphate buffer, pH7.2, for 10 min. The enamel substrates were rinsed 3 times the buffer. The enamel wells were filled with 500 μL of 10 μM enzyme solutions which was prepared by diluting in 10 mM phosphate buffer. The samples were incubated for 30 min with slow shaking at 37° C. The non-binding enzyme was removed by washing 4 times with phosphate buffer. Then, each enamel block was embedded inside a putty filled 24-well plate, with only the enamel top surface exposed. The perhydrolase activity from enamel bound enzyme was measured as described in Example 8. 100 μL reaction mixtures (100 mM phosphate buffer, pH7.2 and 100 mM H2O2 and 100 mM triacetin) was added on top of the enamel and incubated for 30 min at 37° C. A 90 μL aliquot was removed for detection via ABTS oxidation as noted in Example 8. Each sample data point represents an average of 3 independent enamel blocks.

[2] = Retention of perhydrolase on hydroxyapatite (SDS-PAGE band strength); type: binding; conditions: relative to enzyme input = 1
Description: Perhydrolase enzymes listed in Table 6 were assessed for binding to hydroxyapatite. A dispersion of hydroxyapatite nanoparticles (Aldrich 677418) was made at 0.5% solids in 10 mM phosphate buffer at pH 7.2. Enzyme stock solution was added to the hydroxyapatite dispersion to a final concentration of 10 μM and incubated for 30 min in a microcentrifuge tube with gentle agitation. Each sample was centrifuged for 5 min at 10000 rpm. The supernatant was removed and additional buffer was added. The particles were resuspended and transferred to a new tube. The process was repeated two additional times. Samples of the original input of enzyme, the supernatant removed from the particles with each wash step and the final particles were prepared for SDS-PAGE analysis by combining 60 μL of sample, 20 μL of LDS buffer and 8 μL of reducing agent (Nu-PAGE). Samples were heated at 85° C. for 10 min. 25 μL of each sample was loaded on a 4-12% BisTris gel (Invitrogen) and run at 115 volts for 1.5 h. The gel was removed and stained with a 1:1 dilution of Simply Blue stain (Invitrogen) overnight and destained for 4 h in deionized water. The gel was analyzed and detection of enzyme in each fraction was estimated based on the presence of a band. The results of the analysis are provided in Table 7 with an indication of the relative strength of each band in the gel compared to the enzyme input (input=1) to determine the strength of binding between the hydroxyapatite surface and each enzyme.

[3] = T. maritima C277S/C277T constructs, peracetic acid in solution (Example 11); type: biochemical; conditions: 0.5 μM enzyme, 100 mM triacetin, 100 mM H2O2, pH 7.2, 10 min, 37° C.; no enzyme 114
Description: as §1
Perhydrolase enzymes listed in Table 5 were assessed for enzyme activity in solution as described in Example 7. The enzyme activity in solution was measured by making a 500 μl solution of 0.5 μM of each enzyme in 100 mM triacetin, 100 mM H2O2 and 10 mM phosphate buffer, pH 7.2. The solution was incubated for 10 min, at 37° C. After the reaction was stopped by mixing an aliquot with H3PO4, a 10 μL aliquot was removed for proper dilution, and then detected via ABTS oxidation as described in Example 7.

[4] = Peracetic acid generation from hydroxyapatite bound CE-7 perhydrolase fusions (Example 8); type: biochemical; conditions: hydroxyapatite particles exposed to 10 μM enzyme, washed; 100 mM triacetin, 100 mM H2O2, 30 min, 37° C.; no enzyme 30-118.8
Description: as §1
To assess binding of these constructs to hydroxyapatite, 33 mg of hydroxyapatite particles (Macro-prep Ceramic Hydroxyapatite TYPE I, 80 μm size BioRad, Hercules, Calif.), were washed with 10 mM phosphate buffer at pH 7.2. After removing the supernatant, enzyme stock solution was added to the hydroxyapatite dispersion to a final concentration of 10 μM and incubated for 30 min in a microcentrifuge tube with gentle agitation. Each sample was centrifuged for 1 min at 10000 rpm. The supernatant was removed and additional buffer was added. The particles were resuspended and transferred to a new tube. The process was repeated two additional times. The hydroxyapatite bound enzyme activity was measured by adding a 500 μl solution containing 100 mM triacetin, 100 mM H2O2 in 100 mM phosphate buffer, pH 7.2. The solution was incubated for 30 min, at 37° C. An aliquot was removed and mixed with H3PO4 and properly diluted for detection via ABTS oxidation as described in Example 7. The experiments were performed at different day with no enzyme as control for each experiment.

Unbound (relative band strength) ([2]; 10 μM enzyme, 0.5% hydroxyapatite, pH 7.2): 0.9
HAP Particles (relative band strength) ([2]; enzyme retained on particles after washes): 0.05
Wash1 (relative band strength) [2]: 0.01
Wash2 (relative band strength) [2]: 0.00
Peracetic acid (ppm) [4]: 1885.1 ppm
B1: EZ-9: C277S-link1-H6, SEQ ID NO: 430 (protein)
chain: MAFFDLPLEELKKYRPERYEEKDFDEFWEETLAESEKFPLDPVFERMESHLKTVEAYDVTFSGYRGQRIKGWLLVPKLEEEKLPCVVQYIGYNGGRGFPHDWLFWPSMGYICFVMDTRGQGSGWLKGDTPDYPEGPVDPQYPGFMTRGILDPRTYYYRRVFTDAVRAVEAAASFPQVDQERIVIAGGSQGGGIALAVSALSKKAKALLCDVPFLCHFRRAVQLVDTHPYAEITNFLKTHRDKEEIVFRTLSYFDGVNFAARAKIPALFSVGLMDNISPPSTVFAAYNYYAGPKEIRIYPYNNHEGGGSFQAVEQVKFLKKLFEKGGPGSGGAGSPGSAGGPGSHHHHHH
Peracetic acid (ppm) On Enamel [1]: 612 ppm
Peracetic acid (ppm) In Solution [3]: 5499 ppm

B2: EZ-15: C277T-link1-H6, SEQ ID NO: 439 (protein)
chain: B1 chain with S277T
Peracetic acid (ppm) On Enamel [1]: 631 ppm
Peracetic acid (ppm) In Solution [3]: 5921 ppm

B3: EZ-16: C277T-link1-HC263-H6, SEQ ID NO: 440 (protein)
chain: MAFFDLPLEELKKYRPERYEEKDFDEFWEETLAESEKFPLDPVFERMESHLKTVEAYDVTFSGYRGQRIKGWLLVPKLEEEKLPCVVQYIGYNGGRGFPHDWLFWPSMGYICFVMDTRGQGSGWLKGDTPDYPEGPVDPQYPGFMTRGILDPRTYYYRRVFTDAVRAVEAAASFPQVDQERIVIAGGSQGGGIALAVSALSKKAKALLCDVPFLCHFRRAVQLVDTHPYAEITNFLKTHRDKEEIVFRTLSYFDGVNFAARAKIPALFSVGLMDNITPPSTVFAAYNYYAGPKEIRIYPYNNHEGGGSFQAVEQVKFLKKLFEKGGPGSGGAGSPGSAGGPGSPSAQSQLPDKHSGLHERAPQRYGPEPEPEPEPIPEPPKEAPVVIEKPKPKPKPKPKPPAHDHKNQKETHQRHAAGSGGGGSPHHHHHH
Peracetic acid (ppm) On Enamel [1]: 1832 ppm
Peracetic acid (ppm) In Solution [3]: 6496 ppm

B4: EZ-18: C277T-link1-(GK)5-H6, SEQ ID NO: 442 (protein)
chain: MAFFDLPLEELKKYRPERYEEKDFDEFWEETLAESEKFPLDPVFERMESHLKTVEAYDVTFSGYRGQRIKGWLLVPKLEEEKLPCVVQYIGYNGGRGFPHDWLFWPSMGYICFVMDTRGQGSGWLKGDTPDYPEGPVDPQYPGFMTRGILDPRTYYYRRVFTDAVRAVEAAASFPQVDQERIVIAGGSQGGGIALAVSALSKKAKALLCDVPFLCHFRRAVQLVDTHPYAEITNFLKTHRDKEEIVFRTLSYFDGVNFAARAKIPALFSVGLMDNITPPSTVFAAYNYYAGPKEIRIYPYNNHEGGGSFQAVEQVKFLKKLFEKGGPGSGGAGSPGSAGGPGSGKGKGKGKGKHHHHHH
Peracetic acid (ppm) On Enamel [1]: 1158 ppm
Peracetic acid (ppm) In Solution [3]: 5537 ppm

B5: EZ-14: C277T-link1-DenP308-H6, SEQ ID NO: 438 (protein)
chain: MAFFDLPLEELKKYRPERYEEKDFDEFWEETLAESEKFPLDPVFERMESHLKTVEAYDVTFSGYRGQRIKGWLLVPKLEEEKLPCVVQYIGYNGGRGFPHDWLFWPSMGYICFVMDTRGQGSGWLKGDTPDYPEGPVDPQYPGFMTRGILDPRTYYYRRVFTDAVRAVEAAASFPQVDQERIVIAGGSQGGGIALAVSALSKKAKALLCDVPFLCHFRRAVQLVDTHPYAEITNFLKTHRDKEEIVFRTLSYFDGVNFAARAKIPALFSVGLMDNITPPSTVFAAYNYYAGPKEIRIYPYNNHEGGGSFQAVEQVKFLKKLFEKGGPGSGGAGSPGSAGGPGSTKPPRTPTANTSRPHHNFGSGGGGSPHHHHHH
Peracetic acid (ppm) On Enamel [1]: 1418 ppm
Peracetic acid (ppm) In Solution [3]: 4689 ppm

B6: EZ-17: C277T-link2-H6, SEQ ID NO: 441 (protein)
chain: MAFFDLPLEELKKYRPERYEEKDFDEFWEETLAESEKFPLDPVFERMESHLKTVEAYDVTFSGYRGQRIKGWLLVPKLEEEKLPCVVQYIGYNGGRGFPHDWLFWPSMGYICFVMDTRGQGSGWLKGDTPDYPEGPVDPQYPGFMTRGILDPRTYYYRRVFTDAVRAVEAAASFPQVDQERIVIAGGSQGGGIALAVSALSKKAKALLCDVPFLCHFRRAVQLVDTHPYAEITNFLKTHRDKEEIVFRTLSYFDGVNFAARAKIPALFSVGLMDNITPPSTVFAAYNYYAGPKEIRIYPYNNHEGGGSFQAVEQVKFLKKLFEKGGSHHHHHH
Peracetic acid (ppm) On Enamel [1]: 616 ppm
Peracetic acid (ppm) In Solution [3]: 5360 ppm

B7: EZ-12: T. maritima C277T variant, untargeted, SEQ ID NO: 437 (protein)
chain: MAFFDLPLEELKKYRPERYEEKDFDEFWEETLAESEKFPLDPVFERMESHLKTVEAYDVTFSGYRGQRIKGWLLVPKLEEEKLPCVVQYIGYNGGRGFPHDWLFWPSMGYICFVMDTRGQGSGWLKGDTPDYPEGPVDPQYPGFMTRGILDPRTYYYRRVFTDAVRAVEAAASFPQVDQERIVIAGGSQGGGIALAVSALSKKAKALLCDVPFLCHFRRAVQLVDTHPYAEITNFLKTHRDKEEIVFRTLSYFDGVNFAARAKIPALFSVGLMDNITPPSTVFAAYNYYAGPKEIRIYPYNNHEGGGSFQAVEQVKFLKKLFEKG
Peracetic acid (ppm) On Enamel [1]: 612 ppm
Peracetic acid (ppm) In Solution [3]: 4918 ppm
